Where two headings read alike, the source gives them in different places.
Key:
[1] = target: Mycobacterium tuberculosis DnaK, wild-type, full-length (M. tuberculosis) (UniProt P9WMJ9)
[2] = target: Mycobacterium tuberculosis DnaK, wild-type, full-length (M. tuberculosis) (UniProt P9WMJ9); remark: listed apart in the source

Substance	IC50 in DnaK-DnaJ2-GrpE ATPase dose-response assay [1] [µM]	IC50 in DnaK-DnaJ2-GrpE ATPase dose-response assay [2] [µM]
Pz-Val-Val-Pro-Leu-OH (2) (peptide)	192	–
Pz-Val-Val-Pro-photoLeu-OMe (7) (peptide)	–	52.5

Reference: paper PMC9124243
